{
  "source": "patent US12534533B2",
  "about": "“Anti-chemokine like receptor 1 humanized antibodies and their therapeutic applications” (OSE IMMUNOTHERAPEUTICS, priority 2019, dated 2026)",
  "key": {"[1]": {"system": "spontaneous colitis in IL-10KO mice", "assay": "IL10 KO spontaneous chronic inflammatory colitis model", "type": "in vivo", "conditions": "vs isotype control", "protocol": "FIG. 4. Effect of an anti-CMKLR1 antibody on a IL10 KO mice chronic inflammatory colitis model. Mice KO for IL10 develop a spontaneous inflammatory colitis. They were treated with an Anti-CMKLR1 antibody (2G1) (□) or isotype control (hIgG1) (x) intra-peritoneally (25 μg/injection, 3 times a week). A. Animal weight loss during and after treatment. B. Animal score stool.\nIL-10KO mice develop a spontaneous colitis from 20 weeks of age mostly due to the absence of regulatory T cells function through IL-10 secretion in the intestine. IL-10KO mice were followed-up three times a week from 18-week old for their weight loss and stool consistency which are clinical hallmarks of this pathology."}, "colitis induced by TNBS": {"system": "colitis induced by TNBS", "assay": "acute inflammatory colitis model induced by TNBS", "type": "in vivo, mice", "conditions": "RvE1 1 μg per mouse daily, 2G1 10 μg per mouse; FIG. 3", "protocol": "FIG. 3. Effect of an anti-CMKLR1 antibody on a mice acute inflammatory colitis model induced by TNBS. Mice received 200 μL of the haptenating agent TNBS at 5% in 50% ethanol on day 0 and then were injected with isotype control hIgG1 (10 μg per mouse) (x), RvE1 (1 μg per mouse) daily (●), or 2G1 antibody (10 μg per mouse) three times (□) for 5 days, or non-treated (wild type animals) (▴). Mice were sacrificed colon length was measured in each condition.\nColitis was induced in 8-10 weeks-old-C57Bl/6 male mice by intrarectal injection of 200 μL of the haptenating agent TNBS at 5% in 50% ethanol on day 0. Treatments were injected intra-peritoneally; RvE1 (1 μg per mouse) daily for three days, or 2G1 antibody (10 μg per mouse) twice for 3 days. Colitis follow-up consisting of body weight and stool score (0: normal stool; 4: blood in stool) parameters were performed daily (data not represented). When mice are euthanized, colon length representing the pathology severity was measured."}, "[2]": {"system": "spontaneous type 1 diabetes in NOD mice", "assay": "type 1 diabetes NOD model", "type": "in vivo", "conditions": "20 μg/injection i.p. three times a week for 2 weeks", "description": "FIG. 5. Effect of an anti-CMKLR1 antibody on a mice type1 non-obese diabetes model. Mice develop spontaneous diabetes. […] A. Percentage of survival, B. individual representation of blood glucose concentration in mg/dL. C. pooled representation of blood glucose concentration in mg/dL.\n8 weeks-old NOD female mice were obtained from Charles River laboratory. These mice develop a spontaneous type 1 diabetes at age between 12 to 20 weeks. The diabetes initiation can be measured by the high glycaemia."}, "AK-7 cells": {"system": "AK-7 cells", "assay": "Mesothelioma model survival", "type": "in vivo, mice", "conditions": "1 mg/kg three times a week for 3 weeks starting at d4; vs control antibody; FIG. 30", "protocol": "AK-7 cells (3M) were injected in the pleural cavity and mice received either Iso ctrl or 2G1 three times a week for 3 weeks starting at d4 at 1 mg/kg."}, "[3]": {"system": "ROS production by PMN from healthy volunteers", "assay": "ROS test in PMN", "type": "cell-based, human", "conditions": "coated Ab at 10 μg/mL, after 5 h; FIG. 26C", "protocol": "Neutrophils were isolated from blood of healthy volunteers and cultured for 24 h (Mortality analysis), or 4 h, 6 h, 11 h (Caspase-3 assay), or 5 h (ROS assay) on coated Iso ctrl (cross), chimeric anti-ChemR23 2G1 (square) or different humanized versions of the 2G1 (diamonds). Mortality of PMN was analyzed by incubating PMN with specific markers of the mortality and viability and then counted by picture analysis.\nPMN from healthy volunteers were incubated in culture medium with coated Ab at 10 μg/mL for 24 h or 5 h and stained either with a dead/viability kit (LIVE/DEAD (Invitrogen)) or a specific marker of reactive oxygen species (ROS) respectively. The percentages of positive cells were obtained by analyzing the pictures with ImageJ software."}, "[4]": {"system": "PMN from healthy volunteers or ANCA patients", "assay": "Neutrophils transmigration through endothelial monolayer (HDMEC transwell)", "type": "cell-based, human", "protocol": "Endothelial cells were coated and +/−activated with 100 U/mL of TNFa overnight. Then PMN were added with or without TNFa at 100 U/mL and Ab for two hours. The transmigrated PMN were collected and analyzed by flow cytometry.\nHuman endothelial cells (HDMEC) were incubated for 24 h in the transwell coated with gelatin and activated overnight with TNF-alpha at 100 U/mL or without inflammatory conditions. Then, PMN from healthy volunteers or ANCA patients were incubated in transwell containing the monolayer of HDMEC for 4 hours. Antibodies (Iso Ctrl and 2G1) were added at 10 μg/mL+/−TNF-alpha at 100 U/mL during the 4 hours of the transmigration assay. The lower transmigrated part of the transwell was collected and the transmigrated PMN were counted by flow cytometry using counting beads."}, "[5]": {"system": "neutrophils and macrophages in exudates", "assay": "in vivo neutrophils apoptosis (sterile air and carrageenan, exudates)", "protocol": "FIG. 27—in vivo neutrophils apoptosis —A) Experimental proceedings—B) ChemR23 expression C) neutrophils frequency in exudates D) macrophages frequency in exudates G) neutrophils mortality F) Ratio dead/living neutrophils.\nSterile air was injected two times at d3 and d6 and inflammation was initiated with the injection of carrageenan. Exudates were collected at different times and stained for flow cytometry analysis."}, "[6]": {"target": "T1, CMKLR1 peptide (loop EL3 of CMKLR1, SEQ ID No: 60) (Homo sapiens, UniProt Q99788)", "T1 sequence (Q99788 275-307 limits assumed)": "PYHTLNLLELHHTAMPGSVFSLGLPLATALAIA", "assay": "ELISA binding on CMKLR1 peptide", "conditions": "compared to isotype control; FIG. 12", "protocol": "FIG. 12. Binding analysis of the anti-CMKLR1 antibody on a CMKLR1 peptide by ELISA. The binding of the 2G1 antibody (□) on the CMKLR1 EL3 loop (SEQ ID No: 18) was compared to the isotype control antibody (3G8) (x) by measuring the OD at 450 nm by ELISA.\nCMKLR1 peptide (273NH2-[…]-COOH305) (SEQ ID No: 60) (5 μg/ml) was coated in borate buffer overnight. Saturation was performed with PBS-Tween 0.1%-Gelatin 0.25% for 2 hours at 37° C. Then, 2G1 or hIgG1 antibodies were added at different concentrations for 2 hours at 37° C. […] The colorimetric reaction was read with TECAN."}},
  "data": [
    {"molecule": "2G1: parental chimeric anti-CMKLR1 antibody: heavy chain variable domain SEQ ID No. 37, light chain variable domain SEQ ID No. 49 (antibody, V domains shown) VH: EVQLVASGGGLVQPGGSLKLSCAASGFTFSSYGMSWVRQTPDRRLELVATINRYGGSTYYPDSVKGRFTISRDNAKNTLYLQMSSLKSEDTAMYYCPRLIYYGNEGDSWGQGTTLTVSS VL: QIVLTQSPAIMSASPGEKVTMTCSASSSVSFMHWYQQKSGTSPKRWIYDTTKLTSGVPARFSGSGSGTFYSLTISSMEAEDAATYYCQQWNSKPPLTFGPGTKLELKR", "values": [
      {"measurement": "percentage of weight loss", "setting": "[1]; 25 μg/injection i.p., 3 times a week for 2 weeks, FIG. 4A", "result": "lost less weight"},
      {"measurement": "score stool", "setting": "[1]; FIG. 4B", "result": "better score stool"},
      {"measurement": "colon length", "setting": "colitis induced by TNBS", "result": "the same as normal animal"},
      {"measurement": "Percentage of survival", "setting": "[2]; FIG. 5A", "result": "better survival percentage"},
      {"measurement": "glycaemia (blood glucose concentration)", "setting": "[2]; FIG. 5B-C", "result": "almost normal glycaemia"},
      {"measurement": "survival rate", "setting": "AK-7 cells", "result": "higher survival rate"},
      {"measurement": "ROS production by PMN", "setting": "[3]", "result": "increase the ROS production"},
      {"measurement": "transmigration capability of neutrophils", "setting": "[4]; 10 μg/mL, compared to control compounds, FIG. 28A", "result": "lower transmigration capability"},
      {"measurement": "PMN transmigration through endothelial monolayer under inflammatory condition", "setting": "[4]; PMN and endothelial cells activated with TNFa, healthy volunteers and patients, FIG. 28B", "result": "avoids PMN transmigration"},
      {"measurement": "percentage of neutrophils in exudates", "setting": "[5]; FIG. 27C", "result": "not significantly decreased"},
      {"measurement": "overall percentage of macrophages in exudates", "setting": "[5]; FIG. 27D", "result": "slightly enhanced"},
      {"measurement": "percentage of dead neutrophils", "setting": "[5]; FIG. 27E and FIG. 27F", "result": "increased"},
      {"measurement": "binding on the CMKLR1 EL3 loop peptide (OD at 450 nm)", "setting": "[6]", "result": "able to bind the polypeptide forming the loop EL3 of CMKLR1"}
    ]}
  ]
}
